In assay [1] the target is T1, GST-YoeB fusion protein (Escherichia coli, UniProt P69348 1-84).
T1 construct: also called YoeB-GST; GST-YoeB fusion polypeptide; not shown: glutathione S-transferase (GST) fusion partner encoded by the pET42a expression vector (Novagen); vector-encoded linker of pET42a between GST and the EcoRI cloning site; not described
T1 sequence: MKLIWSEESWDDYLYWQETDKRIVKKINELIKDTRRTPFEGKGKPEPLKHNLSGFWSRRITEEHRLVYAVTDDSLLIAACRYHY
Put plainly: peptide array on cellulose membrane, anti-GST detection. The procedure: (§1) Following incubation, the membrane was washed once in TBS-T then supplemented with 10 ml suspension comprising TBS, mouse anti-GST antibody and horseradish peroxidase conjugated goat anti-mouse antibody in the appropriate titers. Following 1 hour incubation at room temperature the membrane was briefly washed with TBS-T and TBS.

Assay [2] concerns the target T1, GST-YoeB fusion protein. Put plainly: peptide array on cellulose membrane, low stringency, GST-YoeB probe, anti-GST antibody and chemiluminescence.
The target of assay [3] is T1, GST-YoeB fusion protein. Put plainly: peptide array on cellulose membrane, single-residue shift, high stringency, GST-YoeB probe, anti-GST antibody and chemiluminescence. The method, then:
as §1

The target of assay [4] is T1, GST-YoeB fusion protein. In words: peptide array of single-replacement analogs. The procedure:
as §1

Assay [5] concerns the target T1, GST-YoeB fusion protein. Put plainly: peptide array, low stringency.

For RTISYSEAAQNLS (Arrayed on a cellulose membrane) [YefM11-23 analog with arginine 19 replaced by alanine], the binding result in assay [1] is “no binding”.

B1: YefM13-25 peptide (peptide)
peptide: ISYSEARQNLSAT
notes: It follows from 'YefM11-23-YefM15-27', three tridecamers with a shift of two amino acids; also called second of the three tridecamers YefM11-23-YefM15-27
On to B1, for which the binding result in assay [2] is given as “binds”. For the molecule RTISYSEAGQNLS (Arrayed on a cellulose membrane) [YefM11-23 analog with arginine 19 replaced by glycine], in assay [1], the binding result was “no binding”.

B2: 12-24 (peptide)
peptide: TISYSEARQNLSA
notes: Cell not labelled; also called YefM12-24 peptide
Take B2: the binding result in assay [3] is given as “binds”.

For YSEARQNLSATMM [YefM15-27 peptide], the binding result in assay [2] is “binds”. For RTISYSEARQNAS (Position 22 counts on whole YefM) [YefM11-23 analog with leucine 22 replaced by alanine], the binding result in assay [4] is “binds”.

B3: 10-22 (peptide)
peptide: MRTISYSEARQNL
notes: Cell not labelled; also called YefM10-22 peptide
For B3, in assay [3], the binding result was “binds”.

Take DSIDSLKSGKGTE [YefM75-87 peptide]: in assay [5], the binding result was “binds”. For the molecule RTISYSEARQNGS (Position 22 counts on whole YefM) [YefM11-23 analog with leucine 22 replaced by glycine], the binding result in assay [4] was “binds”.

The values above are taken from US20070298043A1 (RAMOT AT TEL AVIV UNIVERSITY, published 2007).
